The record followed here is patent publication US6156546 (Washington State University Research Foundation, dated 2000).

Assay [1] deals with Human plasma fibronectin (human) (UniProt P02751). The experiment in a line: soluble 125I-Fn bound to untreated whole C. jejuni, gamma counting.
Assay [2] deals with Human plasma fibronectin (human, UniProt P02751-8, 125I-labelled (Iodogen method) or biotinylated (sulfo-NHS-biotin) in the ligand blots and the soluble binding assay; unlabelled when immobilised on coverslips). The experiment in a line: ligand blot with 125I-labeled Fn.

The molecule “C. jejuni whole bacteria (isolate not stated) in the soluble 125I-Fn assay (cells without a defined receptor)” came in with a ng Fn bound in assay [1] of 380 ng.

B1: CadF protein of Campylobacter coli M275 (other)
chain: ADNNVKFEITPTLNHNYFEGNLDMDNRYAPGIRLGYHFDDFWLDQLELGLEHYSDVKYTNSTLTTDITRTYLSAIKGIDLGEKFYFYGLAGGGYEDFSKGAFDNKSGGFGHYGAGLKFRLSDSLALRLETRDQISFHDADHSWVSTLGISFGFGAKREKVVAEQVKEVAIEPRVAVPTQSQCPAEPREGAMLDENGCEKTISFEGHFGFDKVDINPAFEEKIKEIAQLLDENARYDTILEGHTDNIGSRAYNQKLSERRAESVAKELEKFGVDKDRIQTVGYGQDKPRSRNETKEGRADNRRVDAKFILR
With B1, the binding result in assay [2] is “binds”.
